Experiments:
HeLa Kyoto [1] = assay: solubility in G1/S (NP-40 vs SDS abundance) (log2 ratio); higher = more soluble; settings: cell cycle stage: G1/S
HeLa Kyoto [2] = assay: solubility change mitosis vs G1/S (difference of NP-40 vs SDS log2 ratios) (log2 ratio difference); higher = more soluble in mitosis
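Throughout, for solubility change mitosis vs G1/S (difference of NP-40 vs SDS log2 ratios): synchronized HeLa Kyoto cells (double thymidine block for G1/S, nocodazole release for mitosis), protein amounts in NP-40 versus SDS lysates quantified by mass spectrometry, three biological replicates.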
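Throughout, for solubility in G1/S (NP-40 vs SDS abundance): HeLa Kyoto cells arrested at G1/S by double thymidine block, proteins quantified by TMT10plex mass spectrometry in mild NP-40 versus SDS extracts, three biological replicates.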

Sequence | solubility in G1/S (log2) (HeLa Kyoto [1]) | solubility change mitosis (log2) (HeLa Kyoto [2])
MAARGRRAWLSVLLGLVLGFVLASRLVLPRASELKRAGPRRRASPEGCRSGQAAASQAGGARGDARGAQLWPPGSDPDGGPRDRNFLFVGVMTAQKYLQTRAVAAYRTWSKTIPGKVQFFSSEGSDTSVPIPVVPLRGVDDSYPPQKKSFMMLKYMHDHYLDKYEWFMRADDDVYIKGDRLENFLRSLNSSEPLFLGQTGLGTTEEMGKLALEPGENFCMGGPGVIMSREVLRRMVPHIGKCLREMYTTHEDVEVGRCVRRFAGVQCVWSYEMQQLFYENYEQNKKGYIRDLHNSKIHQAITLHPNKNPPYQYRLHSYMLSRKISELRHRTIQLHREIVLMSKYSNTEIHKEDLQLGIPPSFMRFQPRQREEILEWEFLTGKYLYSAVDGQPPRRGMDSAQREALDDIVMQVMEMINANAKTRGRIIDFKEIQYGYRRVNPMYGAEYILDLLLLYKKHKGKKMTVPVRRHAYLQQTFSKIQFVEHEELDAQELAKRINQESGSLSFLSNSLKKLVPFQLPGSKSEHKEPKDKKINILIPLSGRFDMFVRFMGNFEKTCLIPNQNVKLVVLLFNSDSNPDKAKQVELMRDYRIKYPKADMQILPVSGEFSRALALEVGSSQFNNESLLFFCDVDLVFTTEFLQRCRANTVLGQQIYFPIIFSQYDPKIVYSGKVPSDNHFAFTQKTGFWRNYGFGITCIYKGDLVRVGGFDVSIQGWGLEDVDLFNKVVQAGLKTFRSQEVGVVHVHHPVFCDPNLDPKQYKMCLGSKASTYGSTQQLAEMWLEKNDPSYSKSSNNNGSVRTA [CHSY1] | -0.388 | 0.159
MAARPITLGIDLGTTSVKAALLRAAPDDPSGFAVLASCARAARAEAAVESAVAGPQGREQDVSRILQALHECLAALPRPQLRSVVGIGVSGQMHGVVFWKTGQGCEWTEGGITPVFEPRAVSHLVTWQDGRCSSEFLASLPQPKSHLSVATGFGCATIFWLLKYRPEFLKSYDAAGTIHDYVVAMLCGLPRPLMSDQNAASWGYFNTQSQSWNVETLRSSGFPVHLLPDIAEPGSVAGRTSHMWFEIPKGTQVGVALGDLQASVYSCMAQRTDAVLNISTSVQLAASMPSGFQPAQTPDPTAPVAYFPYFNRTYLGVAASLNGGNVLATFVHMLVQWMADLGLEVEESTVYSRMIQAAVQQRDTHLTITPTVLGERHLPDQLASVTRISSSDLSLGHVTRALCRGIVQNLHSMLPIQQLQEWGVERVMGSGSALSRNDVLKQEVQRAFPLPMSFGQDVDAAVGAALVMLRRHLNQKES [SHPK] | -0.0429 | -0.108
MAASKKAVLGPLVGAVDQGTSSTRFLVFNSRTAELLSHHQVEIKQEFPREGWVEQDPKEILHSVYECIEKTCEKLGQLNIGISNIKAIGVSNQRETTVVWDKITGEPLYNAVVWLDLRTQSTVESLSKRIPGNNNFVKSKTGLPLSTYFSAVKLRWLLDNVRKVQKAVEEKRALFGTIDSWLIWSLTGGVNGGVHCTDVTNASRTMLFNIHSLEWDKQLCEFFGIPMEILPHVRSSSEIYGLMKAGALEGVPISGCLGDQSAALVGQMCFQIGQAKNTYGTGCFLLCNTGHKCVFSDHGLLTTVAYKLGRDKPVYYALEGSVAIAGAVIRWLRDNLGIIKTSEEIEKLAKEVGTSYGCYFVPAFSGLYAPYWEPSARGIICGLTQFTNKCHIAFAALEAVCFQTREILDAMNRDCGIPLSHLQVDGGMTSNKILMQLQADILYIPVVKPLMPETTALGAAMAAGAAEGVDVWSLEPEDLSAVTMERFEPQINAEESEIRYSTWKKAVMKSMGWVTTQSPEGGDPSVFCSLPLGFFIVSSMAMLIGARYISGIP [GK3P] | -0.0732 | -0.0298
MAASLWMGDLEPYMDENFISRAFATMGETVMSVKIIRNRLTGIPAGYCFVEFADLATAEKCLHKINGKPLPGATPAKRFKLNYATYGKQPDNSPEYSLFVGDLTPDVDDGMLYEFFVKVYPSCRGGKVVLDQTGVSKGYGFVKFTDELEQKRALTECQGAVGLGSKPVRLSVAIPKASRVKPVEYSQMYSYSYNQYYQQYQNYYAQWGYDQNTGSYSYSYPQYGYTQSTMQTYEEVGDDALEDPMPQLDVTEANKEFMEQSEELYDALMDCHWQPLDTVSSEIPAMM [TRNAU1AP] | 0.0945 | -0.0623
MAASRRSQHHHHHHQQQLQPAPGASAPPPPPPPPLSPGLAPGTTPASPTASGLAPFASPRHGLALPEGDGSRDPPDRPRSPDPVDGTSCCSTTSTICTVAAAPVVPAVSTSSAAGVAPNPAGSGSNNSPSSSSSPTSSSSSSPSSPGSSLAESPEAAGVSSTAPLGPGAAGPGTGVPAVSGALRELLEACRNGDVSRVKRLVDAANVNAKDMAGRKSSPLHFAAGFGRKDVVEHLLQMGANVHARDDGGLIPLHNACSFGHAEVVSLLLCQGADPNARDNWNYTPLHEAAIKGKIDVCIVLLQHGADPNIRNTDGKSALDLADPSAKAVLTGEYKKDELLEAARSGNEEKLMALLTPLNVNCHASDGRKSTPLHLAAGYNRVRIVQLLLQHGADVHAKDKGGLVPLHNACSYGHYEVTELLLKHGACVNAMDLWQFTPLHEAASKNRVEVCSLLLSHGADPTLVNCHGKSAVDMAPTPELRERLTYEFKGHSLLQAAREADLAKVKKTLALEIINFKQPQSHETALHCAVASLHPKRKQVTELLLRKGANVNEKNKDFMTPLHVAAERAHNDVMEVLHKHGAKMNALDTLGQTALHRAALAGHLQTCRLLLSYGSDPSIISLQGFTAAQMGNEAVQQILSESTPIRTSDVDYRLLEASKAGDLETVKQLCSSQNVNCRDLEGRHSTPLHFAAGYNRVSVVEYLLHHGADVHAKDKGGLVPLHNACSYGHYEVAELLVRHGASVNVADLWKFTPLHEAAAKGKYEICKLLLKHGADPTKKNRDGNTPLDLVKEGDTDIQDLLRGDAALLDAAKKGCLARVQKLCTPENINCRDTQGRNSTPLHLAAGYNNLEVAEYLLEHGADVNAQDKGGLIPLHNAASYGHVDIAALLIKYNTCVNATDKWAFTPLHEAAQKGRTQLCALLLAHGADPTMKNQEGQTPLDLATADDIRALLIDAMPPEALPTCFKPQATVVSASLISPASTPSCLSAASSIDNLTGPLAELAVGGASNAGDGAAGTERKEGEVAGLDMNISQFLKSLGLEHLRDIFETEQITLDVLADMGHEELKEIGINAYGHRHKLIKGVERLLGGQQGTNPYLTFHCVNQGTILLDLAPEDKEYQSVEEEMQSTIREHRDGGNAGGIFNRYNVIRIQKVVNKKLRERFCHRQKEVSEENHNHHNERMLFHGSPFINAIIHKGFDERHAYIGGMFGAGIYFAENSSKSNQYVYGIGGGTGCPTHKDRSCYICHRQMLFCRVTLGKSFLQFSTMKMAHAPPGHHSVIGRPSVNGLAYAEYVIYRGEQAYPEYLITYQIMKPEAPSQTATAAEQKT [TNKS] | 0.036 | -0.258
MAASRSAGEAGPGGSQGRVVRMKRRGGRGPRRGPAGGGEKALKRLKLAVEEFVHATSEGEAPGGCEGRGAPVSFRPGGRKSRKELRKEKRHLRKARRLQRTAGPEQGPGLGGRSGAEEASGHRQDTEERARPAPSRDPSPPRKPRPSRVKAKATAATAKTRPSAAATAAARKRALLAANEEEDREIRKLERCLGLNKRKKKDGSSSVPLSFARDGLDYILGALESGKNSGLYDSSGEEEEDAGQTLPESDLESDSQDESEEEEEGDVEKEKKAQEAEAQSEDDDEDTEEEQGEEKEKGAQEKRRGKRVRFAEDEEKSENSSEDGDITDKSLCGSGEKYIPPHVRQAEETVDFKKKEELERLKKHVKGLLNRLSEPNMASISGQLEELYMAHSRKDMNDTLTSALMGACVTASAMPSRLMMEHVLLVSILHHTVGIEVGAHFLEAVVRKFDAIYKYGSEGKECDNLFTVIAHLYNFHVVQSLLIFDILKKLIGTFTEKDIELILLMLKNVGFSLRKDDALSLKELITEAQTKASGAGSEFQDQTRIRFMLETMLALKNNDMRKIPGYDPEPVEKLRKLQRALVRNAGSGSETQLRVSWDSVLSAEQTGRWWIVGSAWSGAPMIDNSHHTHLQKQLVGTVSSKILELARKQRMNTDIRRNIFCTIMTSEDFLDAFEKLLKLGLKDQQEREIIHVLMDCCLQEKTYNPFYAFLASKFCEYERRFQMTFQFSIWDKFRDLENLPATNFSNLVHLVAHLLKTKSLSLSILKVVEFSELDKPRVRFLRKVLSILLMETEVEDLSLIFTRVSDNPKLGVLREGLKLFISHFLLKNAQAHRSADEANVLREKADLATKCLQGKASLRM [NOM1] | -1 | 0.759
MAAVAMTPNPVQTLQEEAVCAICLDYFTDPVSIGCGHNFCRVCVTQLWGGEDEEDRDELDREEEEEDGEEEEVEAVGAGAGWDTPMRDEDYEGDMEEEVEEEEEGVFWTSGMSRSSWDNMDYVWEEEDEEEDLDYYLGDMEEEDLRGEDEEDEEEVLEEVEEEDLDPVTPLPPPPAPRRCFTCPQCRKSFPRRSFRPNLQLANMVQVIRQMHPTPGRGSRVTDQGICPKHQEALKLFCEVDEEAICVVCRESRSHKQHSVVPLEEVVQEYKAKLQGHVEPLRKHLEAVQKMKAKEERRVTELKSQMKSELAAVASEFGRLTRFLAEEQAGLERRLREMHEAQLGRAGAAASRLAEQAAQLSRLLAEAQERSQQGGLRLLQDIKETFNRCEEVQLQPPEVWSPDPCQPHSHDFLTDAIVRKMSRMFCQAARVDLTLDPDTAHPALMLSPDRRGVRLAERRQEVADHPKRFSADCCVLGAQGFRSGRHYWEVEVGGRRGWAVGAARESTHHKEKVGPGGSSVGSGDASSSRHHHRRRRLHLPQQPLLQREVWCVGTNGKRYQAQSSTEQTLLSPSEKPRRFGVYLDYEAGRLGFYNAETLAHVHTFSAAFLGERVFPFFRVLSKGTRIKLCP [TRIM41] | -0.886 | 0.254
MAAVGPPQQQVRMAHQQVWAALEVALRVPCLYIIDAIFNSYPDSSQSRFCIVLQIFLRLFGVFASSIVLILSQRSLFKFYTYSSAFLLAATSVLVNYYASLHIDFYGAYNTSAFGIELLPRKGPSLWMALIVLQLTFGIGYVTLLQIHSIYSQLIILDLLVPVIGLITELPLHIRETLLFTSSLILTLNTVFVLAVKLKWFYYSTRYVYLLVRHMYRIYGLQLLMEDTWKRIRFPDILRVFWLTRVTAQATVLMYILRMANETDSFFISWDDFWDLICNLIISGCDSTLTVLGMSAVISSVAHYLGLGILAFIGSTEEDDRRLGFVAPVLFFILALQTGLSGLRPEERLIRLSRNMCLLLTAVLHFIHGMTDPVLMSLSASHVSSFRRHFPVLFVSACLFILPVLLSYVLWHHYALNTWLFAVTAFCVELCLKVIVSLTVYTLFMIDGYYNVLWEKLDDYVYYVRSTGSIIEFIFGVVMFGNGAYTMMFESGSKIRAFMMCLHAYFNIYLQAKNGWKTFMNRRTAVKKINSLPEIKGSRLQEINDVCAICYHEFTTSARITPCNHYFHALCLRKWLYIQDTCPMCHQKVYIEDDIKDNSNVSNNNGFIPPNETPEEAVREAAAESDRELNEDDSTDCDDDVQRERNGVIQHTGAAAEEFNDDTD [RNF139] | -0.206 | -0.107
MAAWSPAAAAPLLRGIRGLPLHHRMFATQTEGELRVTQILKEKFPRATAIKVTDISGGCGAMYEIKIESEEFKEKRTVQQHQMVNQALKEEIKEMHGLRIFTSVPKR [BOLA3] | 0.378 | 0.234

Reference: the supplement of paper PMC5998384
